Non-standard residues stand in square brackets, D forms with d. No end group written: not given here. *: point of attachment. Desaminotyrosyl = O=C(CCc1ccc(O)cc1)*; NMeY = CN[C@@H](Cc1ccc(O)cc1)C(=O)O; Agmatine = N=C(N)NCCCCN*; Nle = CCCC[C@H](N)C(=O)O; Orn = NCCC[C@H](N)C(=O)O; dAbu = CC[C@@H](N)C(=O)O; Abu = CC[C@H](N)C(=O)O; GABA = NCCCC(=O)O
T1: GHRH receptor (membrane receptors of human anterior pituitary cells) (human, UniProt Q02643 23-423)
T1 construct: whole, on cells; Native receptor in a membrane fraction of purchased normal human pituitaries, not intact cells; also called hGHRH receptor; human pituitary membrane homogenates
T1 sequence (looked up): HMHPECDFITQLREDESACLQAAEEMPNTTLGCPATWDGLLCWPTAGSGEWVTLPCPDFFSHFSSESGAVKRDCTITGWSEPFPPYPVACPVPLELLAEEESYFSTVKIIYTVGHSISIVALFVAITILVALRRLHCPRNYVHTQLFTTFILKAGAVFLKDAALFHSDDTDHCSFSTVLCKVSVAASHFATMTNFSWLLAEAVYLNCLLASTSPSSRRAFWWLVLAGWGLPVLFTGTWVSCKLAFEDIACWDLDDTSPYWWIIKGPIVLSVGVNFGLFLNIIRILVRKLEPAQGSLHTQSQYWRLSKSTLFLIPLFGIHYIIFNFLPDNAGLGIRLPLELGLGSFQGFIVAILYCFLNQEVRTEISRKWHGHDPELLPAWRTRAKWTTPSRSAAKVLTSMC

B1: P-27401 [Dat^1, D-Ala^2, Gln^8, Orn^12, Abu^15, Orn^21, Nle^27, Asp^28, D-Arg^29]hGHRH(1-29)NH-CH3 (peptide)
peptide: [Desaminotyrosyl][dA]DAIFTQSYR[Orn]VL[Abu]QLSAR[Orn]LLQDI[Nle]D[dR]-NHMe
SMILES: CCCC[C@H](NC(=O)[C@@H](NC(=O)[C@H](CC(=O)O)NC(=O)[C@H](CCC(N)=O)NC(=O)[C@H](CC(C)C)NC(=O)[C@H](CC(C)C)NC(=O)[C@H](CCCN)NC(=O)[C@H](CCCNC(=N)N)NC(=O)[C@H](C)NC(=O)[C@H](CO)NC(=O)[C@H](CC(C)C)NC(=O)[C@H](CCC(N)=O)NC(=O)[C@H](CC)NC(=O)[C@H](CC(C)C)NC(=O)[C@@H](NC(=O)[C@H](CCCN)NC(=O)[C@H](CCCNC(=N)N)NC(=O)[C@H](Cc1ccc(O)cc1)NC(=O)[C@H](CO)NC(=O)[C@H](CCC(N)=O)NC(=O)[C@@H](NC(=O)[C@H](Cc1ccccc1)NC(=O)[C@@H](NC(=O)[C@H](C)NC(=O)[C@H](CC(=O)O)NC(=O)[C@@H](C)NC(=O)CCc1ccc(O)cc1)[C@@H](C)CC)[C@@H](C)O)C(C)C)[C@@H](C)CC)C(=O)N[C@@H](CC(=O)O)C(=O)N[C@H](CCCNC(=N)N)C(=O)NC
notes: also called MR-401
B2: P-25504 [Dat^1, D-Abu^2, Orn^12, Abu^15, Orn^21, Nle^27, Gab^30]hGHRH(1-30)NH2 (peptide)
peptide: [Desaminotyrosyl][dAbu]DAIFTNSYR[Orn]VL[Abu]QLSAR[Orn]LLQDI[Nle]SR[GABA]-NH2
SMILES: CCCC[C@H](NC(=O)[C@@H](NC(=O)[C@H](CC(=O)O)NC(=O)[C@H](CCC(N)=O)NC(=O)[C@H](CC(C)C)NC(=O)[C@H](CC(C)C)NC(=O)[C@H](CCCN)NC(=O)[C@H](CCCNC(=N)N)NC(=O)[C@H](C)NC(=O)[C@H](CO)NC(=O)[C@H](CC(C)C)NC(=O)[C@H](CCC(N)=O)NC(=O)[C@H](CC)NC(=O)[C@H](CC(C)C)NC(=O)[C@@H](NC(=O)[C@H](CCCN)NC(=O)[C@H](CCCNC(=N)N)NC(=O)[C@H](Cc1ccc(O)cc1)NC(=O)[C@H](CO)NC(=O)[C@H](CC(N)=O)NC(=O)[C@@H](NC(=O)[C@H](Cc1ccccc1)NC(=O)[C@@H](NC(=O)[C@H](C)NC(=O)[C@H](CC(=O)O)NC(=O)[C@@H](CC)NC(=O)CCc1ccc(O)cc1)[C@@H](C)CC)[C@@H](C)O)C(C)C)[C@@H](C)CC)C(=O)N[C@@H](CO)C(=O)N[C@@H](CCCNC(=N)N)C(=O)NCCCC(N)=O
notes: also called MR-504; Peptide 25504
B3: P-20351 [Ac-N-Me-Tyr^1, D-Ala^2, Gln^8, Orn^12, Abu^15, Orn^21, Nle^27, Asp^28, Agm^29]hGHRH(1-29)NH2 (peptide)
peptide: Ac-[NMeY][dA]DAIFTQSYR[Orn]VL[Abu]QLSAR[Orn]LLQDI[Nle]D[Agmatine]
SMILES: CCCC[C@H](NC(=O)[C@@H](NC(=O)[C@H](CC(=O)O)NC(=O)[C@H](CCC(N)=O)NC(=O)[C@H](CC(C)C)NC(=O)[C@H](CC(C)C)NC(=O)[C@H](CCCN)NC(=O)[C@H](CCCNC(=N)N)NC(=O)[C@H](C)NC(=O)[C@H](CO)NC(=O)[C@H](CC(C)C)NC(=O)[C@H](CCC(N)=O)NC(=O)[C@H](CC)NC(=O)[C@H](CC(C)C)NC(=O)[C@@H](NC(=O)[C@H](CCCN)NC(=O)[C@H](CCCNC(=N)N)NC(=O)[C@H](Cc1ccc(O)cc1)NC(=O)[C@H](CO)NC(=O)[C@H](CCC(N)=O)NC(=O)[C@@H](NC(=O)[C@H](Cc1ccccc1)NC(=O)[C@@H](NC(=O)[C@H](C)NC(=O)[C@H](CC(=O)O)NC(=O)[C@@H](C)NC(=O)[C@H](Cc1ccc(O)cc1)N(C)C(C)=O)[C@@H](C)CC)[C@@H](C)O)C(C)C)[C@@H](C)CC)C(=O)N[C@@H](CC(=O)O)C(=O)NCCCCNC(=N)N
notes: also called MR-351; Peptide 20351
B4: P-27408 [Dat^1, D-Ala^2, Gln^8, Orn^12, Abu^15, Orn^21, Nle^27, Asp^28]hGHRH(1-29)NH-CH3 (peptide)
peptide: [Desaminotyrosyl][dA]DAIFTQSYR[Orn]VL[Abu]QLSAR[Orn]LLQDI[Nle]DR-NHMe
SMILES: CCCC[C@H](NC(=O)[C@@H](NC(=O)[C@H](CC(=O)O)NC(=O)[C@H](CCC(N)=O)NC(=O)[C@H](CC(C)C)NC(=O)[C@H](CC(C)C)NC(=O)[C@H](CCCN)NC(=O)[C@H](CCCNC(=N)N)NC(=O)[C@H](C)NC(=O)[C@H](CO)NC(=O)[C@H](CC(C)C)NC(=O)[C@H](CCC(N)=O)NC(=O)[C@H](CC)NC(=O)[C@H](CC(C)C)NC(=O)[C@@H](NC(=O)[C@H](CCCN)NC(=O)[C@H](CCCNC(=N)N)NC(=O)[C@H](Cc1ccc(O)cc1)NC(=O)[C@H](CO)NC(=O)[C@H](CCC(N)=O)NC(=O)[C@@H](NC(=O)[C@H](Cc1ccccc1)NC(=O)[C@@H](NC(=O)[C@H](C)NC(=O)[C@H](CC(=O)O)NC(=O)[C@@H](C)NC(=O)CCc1ccc(O)cc1)[C@@H](C)CC)[C@@H](C)O)C(C)C)[C@@H](C)CC)C(=O)N[C@@H](CC(=O)O)C(=O)N[C@@H](CCCNC(=N)N)C(=O)NC
notes: also called MR-408; MR408

target: T1, GHRH receptor (membrane receptors of …); assay: competition with 125I-JV-1-42, human pituitary membranes
Source text: Normal human pituitaries were purchased from the National Hormone and Peptide Program (A. F. Parlow, Los Angeles, County Harbor-UCLA Medical Center, Torrance, Calif.).

| IC50 | Relative affinity (Binding potency) vs JI-38 | Binder |
| --- | --- | --- |
| 2.74 nM | 1.59 JI-38 = 1 | B1 |
| 0.16 nM | 27.2 JI-38 = 1 | [NMeY][dA]DAIFTQSYR[Orn]VL[Abu]QLSAR[Orn]LLQDI[Nle]DR-NHMe [P-27403 [N-Me-Tyr^1, D-Ala^2, Gln^8, Orn^12, Abu^15, Orn^21, Nle^27, Asp^28]hGHRH(1-29)NH-CH3] |
| 1.44 nM | 3.02 JI-38 = 1 | B2 |
| 3.44 nM | 1.26 JI-38 = 1 | B3 |
| 0.52 nM | 8.37 JI-38 = 1 | [NMeY][dA]DAIFTQSYR[Orn]VL[Abu]QLSAR[Orn]LLQDI[Nle]DR-NHEt (also called MR-420; Peptide 28420) [P-28420 [N-Me-Tyr^1, D-Ala^2, Gln^8, Orn^12, Abu^15, Orn^21, Nle^27, Asp^28]hGHRH(1-29)NH-CH2-CH3] |
| 0.55 nM | 7.91 JI-38 = 1 | B4 |

target: T1, GHRH receptor (membrane receptors of …); assay: competition with 125I-[His1,Nle27]hGHRH(1-32)NH2, human pituitary membranes
Source text: Normal human pituitary was purchased from the National Hormone and Peptide Program (UCLA Medical Center, Torrance, Calif.).

| IC50 | Relative affinity (Binding potency) compared to JI-38 | Relative affinity (Binding potency) compared to hGHRH(1-29) | Binder |
| --- | --- | --- | --- |
| 2.6 nM | 1.05 JI-38 = 1 | 2.94 hGHRH(1-29)NH2 = 1 | B1 |
| 0.74 nM | 3.69 JI-38 = 1 | 10.3 hGHRH(1-29)NH2 = 1 | [NMeY][dA]DAIFTQSYR[Orn]VL[Abu]QLSAR[Orn]LLQDI[Nle]DR-NHMe [P-27403 [N-Me-Tyr^1, D-Ala^2, Gln^8, Orn^12, Abu^15, Orn^21, Nle^27, Asp^28]hGHRH(1-29)NH-CH3] |
| 2.85 nM | 0.96 JI-38 = 1 | 2.68 hGHRH(1-29)NH2 = 1 | B2 |
| 3.87 nM | 0.71 JI-38 = 1 | 1.98 hGHRH(1-29)NH2 = 1 | B3 |
| 2.7 nM | 1.01 JI-38 = 1 | 2.83 hGHRH(1-29)NH2 = 1 | [NMeY][dA]DAIFTQSYR[Orn]VL[Abu]QLSAR[Orn]LLQDI[Nle]DR-NHEt (also called MR-420; Peptide 28420) [P-28420 [N-Me-Tyr^1, D-Ala^2, Gln^8, Orn^12, Abu^15, Orn^21, Nle^27, Asp^28]hGHRH(1-29)NH-CH2-CH3] |
| 6.32 nM | 0.53 JI-38 = 1 | 1.21 hGHRH(1-29)NH2 = 1 | B4 |
